Laboratory results published in publication doi:10.1101/152850 (bioRxiv, 2017).

Legend:
IFIT1 wild-type [1] = molecular target: T1, IFIT1 wild-type (human, UniProt P09914 1-478); assay: X-ray crystallography
T1 sequence: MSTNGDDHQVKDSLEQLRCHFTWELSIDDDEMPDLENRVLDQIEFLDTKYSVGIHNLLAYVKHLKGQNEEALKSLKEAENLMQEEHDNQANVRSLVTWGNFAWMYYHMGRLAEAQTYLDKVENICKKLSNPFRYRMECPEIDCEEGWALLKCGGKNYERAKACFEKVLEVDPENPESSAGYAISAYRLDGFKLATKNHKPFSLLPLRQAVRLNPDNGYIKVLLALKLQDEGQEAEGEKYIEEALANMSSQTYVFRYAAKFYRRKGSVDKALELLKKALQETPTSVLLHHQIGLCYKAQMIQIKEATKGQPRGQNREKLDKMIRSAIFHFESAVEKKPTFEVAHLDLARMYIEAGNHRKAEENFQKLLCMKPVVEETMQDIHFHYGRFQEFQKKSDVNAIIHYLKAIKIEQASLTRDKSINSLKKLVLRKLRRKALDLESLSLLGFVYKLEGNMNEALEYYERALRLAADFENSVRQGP

IFIT1 wild-type [2] = molecular target: T1, IFIT1 wild-type; assay: limited proteolysis
SEC = molecular target: the molecule itself; assay: SEC
IFIT1 wild-type [3] = molecular target: T1, IFIT1 wild-type; assay: X-ray crystallography; remark: listed apart in the source
SEC-MALS = molecular target: the molecule itself; assay: SEC-MALS

AAAA (ssRNA, 5' triphosphate) [PPP-oligoA (PPP-AAAA)]
binding result (IFIT1 wild-type [1]): binds

AAAA (ssRNA, 5' Gppp cap (cap G not in strand)) [Gppp-oligoA (Gppp-AAAA)]
binding result (IFIT1 wild-type [2]): binds

B1: IFIT5-IFIT1 chimera (IFIT5^i1TPR9): human IFIT5 α1-α21 (residues 1-435) and human IFIT1 α22-α23 (TPR9, residues 437-478) (other, UniProt Q13325 1-435, looked up)
chain: MSEIRKDTLKAILLELECHFTWNLLKEDIDLFEVEDTIGQQLEFLTTKSRLALYNLLAYVKHLKGQNKDALECLEQAEEIIQQEHSDKEEVRSLVTWGNYAWVYYHMDQLEEAQKYTGKIGNVCKKLSSPSNYKLECPETDCEKGWALLKFGGKYYQKAKAAFEKALEVEPDNPEFNIGYAITVYRLDDSDREGSVKSFSLGPLRKAVTLNPDNSYIKVFLALKLQDVHAEAEGEKYIEEILDQISSQPYVLRYAAKFYRRKNSWNKALELLKKALEVTPTSSFLHHQMGLCYRAQMIQIKKATHNRPKGKDKLKVDELISSAIFHFKAAMERDSMFAFAYTDLANMYAEGGQYSNAEDIFRKALRLENITDDHKHQIHYHYGRFQEFHRKSENTAIHHYLEALKVKDRSPLRTKLTSALKKLSTKRLCHNALDVLESLSLLGFVYKLEGNMNEALEYYERALRLAADFENSVRQGP
stoichiometry N (SEC): 2

AAAA (ssRNA, 5' m7Gppp cap (cap G not in strand)) [m7Gppp-oligoA (m7Gppp-AAAA)]
binding result (IFIT1 wild-type [3]): binds

B2: IFIT2 (natural protein, UniProt P09913 1-472, looked up)
chain: MSENNKNSLESSLRQLKCHFTWNLMEGENSLDDFEDKVFYRTEFQNREFKATMCNLLAYLKHLKGQNEAALECLRKAEELIQQEHADQAEIRSLVTWGNYAWVYYHMGRLSDVQIYVDKVKHVCEKFSSPYRIESPELDCEEGWTRLKCGGNQNERAKVCFEKALEKKPKNPEFTSGLAIASYRLDNWPPSQNAIDPLRQAIRLNPDNQYLKVLLALKLHKMREEGEEEGEGEKLVEEALEKAPGVTDVLRSAAKFYRRKDEPDKAIELLKKALEYIPNNAYLHCQIGCCYRAKVFQVMNLRENGMYGKRKLLELIGHAVAHLKKADEANDNLFRVCSILASLHALADQYEDAEYYFQKEFSKELTPVAKQLLHLRYGNFQLYQMKCEDKAIHHFIEGVKINQKSREKEKMKDKLQKIAKMRLSKNGADSEALHVLAFLQELNEKMQQADEDSERGLESGSLIPSASSWNGE
stoichiometry N (SEC): 2

B3: human IFIT1, wild-type, full-length (residues 1-478) (natural protein, UniProt P09914 1-478, looked up)
chain: MSTNGDDHQVKDSLEQLRCHFTWELSIDDDEMPDLENRVLDQIEFLDTKYSVGIHNLLAYVKHLKGQNEEALKSLKEAENLMQEEHDNQANVRSLVTWGNFAWMYYHMGRLAEAQTYLDKVENICKKLSNPFRYRMECPEIDCEEGWALLKCGGKNYERAKACFEKVLEVDPENPESSAGYAISAYRLDGFKLATKNHKPFSLLPLRQAVRLNPDNGYIKVLLALKLQDEGQEAEGEKYIEEALANMSSQTYVFRYAAKFYRRKGSVDKALELLKKALQETPTSVLLHHQIGLCYKAQMIQIKEATKGQPRGQNREKLDKMIRSAIFHFESAVEKKPTFEVAHLDLARMYIEAGNHRKAEENFQKLLCMKPVVEETMQDIHFHYGRFQEFQKKSDVNAIIHYLKAIKIEQASLTRDKSINSLKKLVLRKLRRKALDLESLSLLGFVYKLEGNMNEALEYYERALRLAADFENSVRQGP
stoichiometry N (SEC-MALS): 2

B4: human IFIT1 K448E (natural protein, UniProt P09914 1-478, looked up)
chain: MSTNGDDHQVKDSLEQLRCHFTWELSIDDDEMPDLENRVLDQIEFLDTKYSVGIHNLLAYVKHLKGQNEEALKSLKEAENLMQEEHDNQANVRSLVTWGNFAWMYYHMGRLAEAQTYLDKVENICKKLSNPFRYRMECPEIDCEEGWALLKCGGKNYERAKACFEKVLEVDPENPESSAGYAISAYRLDGFKLATKNHKPFSLLPLRQAVRLNPDNGYIKVLLALKLQDEGQEAEGEKYIEEALANMSSQTYVFRYAAKFYRRKGSVDKALELLKKALQETPTSVLLHHQIGLCYKAQMIQIKEATKGQPRGQNREKLDKMIRSAIFHFESAVEKKPTFEVAHLDLARMYIEAGNHRKAEENFQKLLCMKPVVEETMQDIHFHYGRFQEFQKKSDVNAIIHYLKAIKIEQASLTRDKSINSLKKLVLRKLRRKALDLESLSLLGFVYELEGNMNEALEYYERALRLAADFENSVRQGP
binding result (SEC): binds
